PMC4506714

Columns and labels:
RPA (RPA70-RPA32-RPA14) = RPA (RPA70-RPA32-RPA14) (UniProt P27694;P15927;P35244 1-616;1-270;1-121); test: EMSA
SSB = SSB (E. coli, UniProt P0AGE0 1-178); test: EMSA
Sequence of SSB (P0AGE0 whole entry): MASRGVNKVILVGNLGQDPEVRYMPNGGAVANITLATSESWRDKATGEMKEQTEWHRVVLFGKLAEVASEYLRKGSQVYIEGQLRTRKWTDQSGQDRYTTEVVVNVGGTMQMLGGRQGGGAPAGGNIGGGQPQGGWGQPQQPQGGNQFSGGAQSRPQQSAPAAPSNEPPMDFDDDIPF

Sequence of RPA (RPA70-RPA32-RPA14) (P27694 whole entry, chain 1 of 3): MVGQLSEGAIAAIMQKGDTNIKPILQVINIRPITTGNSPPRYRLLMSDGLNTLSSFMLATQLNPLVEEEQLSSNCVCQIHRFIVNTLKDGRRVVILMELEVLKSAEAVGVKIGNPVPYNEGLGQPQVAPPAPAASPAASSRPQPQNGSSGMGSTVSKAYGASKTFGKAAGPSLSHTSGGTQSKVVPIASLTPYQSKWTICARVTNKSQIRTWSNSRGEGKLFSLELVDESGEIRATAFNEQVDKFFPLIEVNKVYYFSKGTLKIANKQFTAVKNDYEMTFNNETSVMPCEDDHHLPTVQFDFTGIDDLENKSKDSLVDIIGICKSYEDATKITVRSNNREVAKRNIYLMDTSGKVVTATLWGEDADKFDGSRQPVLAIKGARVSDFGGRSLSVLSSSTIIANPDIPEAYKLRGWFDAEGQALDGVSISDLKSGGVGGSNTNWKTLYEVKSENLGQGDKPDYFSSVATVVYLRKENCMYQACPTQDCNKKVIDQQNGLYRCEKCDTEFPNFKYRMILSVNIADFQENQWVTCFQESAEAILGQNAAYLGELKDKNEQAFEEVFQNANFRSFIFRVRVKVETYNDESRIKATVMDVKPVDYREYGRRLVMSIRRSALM
Sequence of RPA (RPA70-RPA32-RPA14) (P15927 whole entry, chain 2 of 3): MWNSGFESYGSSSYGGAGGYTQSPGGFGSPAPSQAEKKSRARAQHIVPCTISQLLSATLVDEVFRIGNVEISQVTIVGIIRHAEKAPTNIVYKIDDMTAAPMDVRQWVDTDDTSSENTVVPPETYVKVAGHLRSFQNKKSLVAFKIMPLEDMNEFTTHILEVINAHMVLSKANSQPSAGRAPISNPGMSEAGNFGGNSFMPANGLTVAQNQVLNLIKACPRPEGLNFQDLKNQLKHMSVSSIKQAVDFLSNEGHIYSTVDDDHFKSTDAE
Sequence of RPA (RPA70-RPA32-RPA14) (P35244 whole entry, chain 3 of 3): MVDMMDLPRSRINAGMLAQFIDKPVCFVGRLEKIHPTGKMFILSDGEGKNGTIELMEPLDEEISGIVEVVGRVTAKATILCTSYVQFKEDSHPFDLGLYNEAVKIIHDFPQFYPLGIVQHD

TTTTTTTTTTTTTTTTTTTTTTTTTTTTTT (ssDNA) [dT30]
binding result (RPA (RPA70-RPA32-RPA14)): binds | binding result (SSB): binds
